According to the supplement of paper PMC10126150:
± gives the standard deviation of the averaged measurements.

Test system: ATP
Assay: switch fluorescence ratio, 500 uM ATP over buffer (Cy3 cluster intensity, sum of 5 cycles each) (fold (ratio)); higher = stronger signal-on switching upon ATP binding; sequences stand for … in TCGTCGGCAGCGTCAGATGTGTATAAGAGACAGTTTTTTTTTTTTTTTTTTTTTTTTT…TC
Details: aptamer strand: ATP DNA aptamer (quencher-CACCTGGGGGAGTATTGCGGAGGAAGG + anchor), 100 nM annealed; ATP concentration: 500 uM
Method in brief: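 For every switch-domain sequence, the fluorescence ratio is the mean of per-cluster values, each being summed target-cycle Cy3 intensity over summed buffer-cycle Cy3 intensity. Clusters outside 100-1000 RFU were excluded. On a modified Illumina MiSeq flow-cell, the Cy3-labelled switching-strand clusters were annealed to 100 nM quencher-labelled ATP aptamer, imaged in selection buffer and then after 15 min with 500 uM ATP at 22 °C. Five such cycles were run, with NaOH stripping and re-annealing between them.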
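Further: ATP exposure 15 min at 22 °C before imaging.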

Row | Sequence | switch fluorescence ratio
1 | AACAGCCACA | 1.11 ± 0.028
2 | AACAGGATGC | 1.027 ± 0.0039
3 | AACAGGGGCT | 1.09 ± 0.12
4 | AACAGTGATA | 1.01 ± 0.027
5 | AACAGTGTAG | 1 ± 0.013
6 | AACAGTTCTG | 0.986 ± 0.027
7 | AACAGTTTGT | 1 ± 0.017
8 | AACATAGTAG | 0.96446 ± 0.0004
9 | AACATGCGCA | 0.9712 ± 0.0047
10 | AACATTTTAA | 0.965 ± 0.04
11 | AACATTTTTG | 0.998 ± 0.026
12 | AACCAATCGA | 1.04 ± 0.05
13 | AACCATGGGT | 1.01 ± 0.03
14 | AACCCGGATT | 0.9958 ± 0.0035
15 | AACCGGTGCA | 1.08 ± 0.017
16 | AACCGTGGCG | 1.07 ± 0.041
17 | AACCTCTTAG | 0.992 ± 0.026
18 | AACCTGCTAA | 1.057 ± 0.0014
19 | AACCTGTCGG | 1.01 ± 0.028
20 | AACGAAGATT | 1.01 ± 0.019
21 | AACGAATAAA | 0.994 ± 0.025
22 | AACGACCCCC | 1.74 ± 0.31
23 | AACGAGACCA | 1.07 ± 0.052
24 | AACGAGAGGG | 1.04 ± 0.035
25 | AACGAGTGTG | 1.01 ± 0.052

Row | Sequence | switch fluorescence ratio
26 | AACGATAAAT | 1.03 ± 0.014
27 | AACGATAGCA | 1.08 ± 0.016
28 | AACGATTGGG | 0.948 ± 0.027
29 | AACGGAACTA | 1.15 ± 0.019
30 | AACGGACAAA | 1.2 ± 0.052
31 | AACGGACGGC | 1.48 ± 0.098
32 | AACGGCAGGT | 1.03 ± 0.013
33 | AACGGCAGTG | 1.03 ± 0.022
34 | AACGGCGCTA | 1.045 ± 0.0057
35 | AACGGGACCT | 1.33 ± 0.081
36 | AACGGGATAT | 1.09 ± 0.0021
37 | AACGGGATGG | 1.02 ± 0.036
38 | AACGGGGATA | 1.049 ± 0.0065
39 | AACGGGTAGC | 0.993 ± 0.029
40 | AACGGTCTGA | 1.009 ± 0.0024
41 | AACGGTTGAT | 0.974 ± 0.015
42 | AACGGTTTGG | 1.01 ± 0.021
43 | AACGTGAGGG | 0.989 ± 0.051
44 | AACGTGATTA | 1.07 ± 0.023
45 | AACGTGTTTT | 1.042 ± 0.006
46 | AACGTTATCT | 1.04 ± 0.015
47 | AACGTTCGCC | 0.987 ± 0.032
48 | AACGTTGTAC | 1.51 ± 0.037
49 | AACTAGATCG | 1.02 ± 0.028
50 | AACTAGGGTG | 1.12 ± 0.013

Row | Sequence | switch fluorescence ratio
51 | AACTATATGG | 1.046 ± 0.0081
52 | AACTCACGGG | 1.63 ± 0.083
53 | AACTCAGCCG | 1.03 ± 0.013
54 | AACTCCAGTA | 1.008 ± 0.005
55 | AACTCCCTTT | 1.067 ± 0.0086
56 | AACTCCGGCG | 1.129 ± 0.0087
57 | AACTCTAAAA | 1.05 ± 0.051
58 | AACTGAGACT | 1.02 ± 0.032
59 | AACTGAGTTT | 1.008 ± 0.0015
60 | AACTGCGGTC | 1.016 ± 0.0031
61 | AACTGGCAAT | 1.5 ± 0.072
62 | AACTGTAAAT | 1.25 ± 0.2
63 | AACTGTGGAA | 0.991 ± 0.015
64 | AACTGTTTCG | 0.9707 ± 0.0013
65 | AACTTGTTAG | 1.01 ± 0.016
66 | AACTTTGTTG | 1 ± 0.011
67 | AACTTTTAGT | 0.99353 ± 0.00074
68 | AACTTTTTCG | 1.012 ± 0.0034
69 | AACTTTTTTA | 0.964 ± 0.017
70 | AAGAAAACGA | 0.998 ± 0.011
71 | AAGAAAAGGA | 1.02 ± 0.017
72 | AAGAAAGGTA | 1.01 ± 0.025
73 | AAGAAAGTCG | 0.9998 ± 0.0052
74 | AAGAAATAAA | 0.9744 ± 0.0095
75 | AAGAAATGGT | 1.05 ± 0.043

Row | Sequence | switch fluorescence ratio
76 | AAGAACTTAG | 1.026 ± 0.0074
77 | AAGAAGCAGA | 1 ± 0.032
78 | AAGAAGCAGG | 1.06 ± 0.037
79 | AAGAAGGGCA | 1 ± 0.055
80 | AAGAAGGGGA | 1.22 ± 0.31
81 | AAGAATATGT | 0.9756 ± 0.008
82 | AAGAATTGGG | 1.06 ± 0.11
83 | AAGACACGC | 1.04 ± 0.042
84 | AAGACAGGAA | 1.03 ± 0.05
85 | AAGACATGGG | 1.002 ± 0.0021
86 | AAGACCGTTG | 0.967 ± 0.017
87 | AAGACGGGGA | 0.974 ± 0.023
88 | AAGAGACTGT | 1.002 ± 0.0034
89 | AAGAGGCTGG | 0.99 ± 0.024
90 | AAGAGGGACT | 1.03 ± 0.021
91 | AAGAGGGCGG | 0.991 ± 0.034
92 | AAGAGGGGAG | 1.01 ± 0.013
93 | AAGAGGGGGA | 0.996 ± 0.042
94 | AAGAGGGGGT | 1 ± 0.03
95 | AAGAGGGGT | 0.9904 ± 0.0048
96 | AAGAGGTTTT | 1.01 ± 0.02
97 | AAGAGTAGAT | 1.01 ± 0.017
98 | AAGAGTATCT | 1.01 ± 0.013
99 | AAGAGTATTG | 1 ± 0.02
100 | AAGAGTTTTT | 0.981 ± 0.033

Row | Sequence | switch fluorescence ratio
101 | AAGATACGTT | 1.03 ± 0.011
102 | AAGATAGGTT | 1.02 ± 0.057
103 | AAGATATGGC | 1.02 ± 0.047
104 | AAGATCAGGC | 0.9735 ± 0.0023
105 | AAGATGAGTA | 0.982 ± 0.032
106 | AAGATGATGG | 1.01 ± 0.023
107 | AAGATGGGTG | 0.9968 ± 0.005
108 | AAGATGTAAT | 1.01 ± 0.0079
109 | AAGATGTCGT | 1.022 ± 0.0014
110 | AAGATTAGTT | 0.998 ± 0.017
111 | AAGATTCGCC | 0.993 ± 0.012
112 | AAGATTGTAA | 0.996 ± 0.03
113 | AAGATTTAGG | 1.01 ± 0.063
114 | AAGATTTGAC | 1.003 ± 0.0085
115 | AAGATTTGTT | 0.978 ± 0.021
116 | AAGATTTTAT | 0.977 ± 0.019
117 | AAGATTTTGT | 0.995 ± 0.014
118 | AAGATTTTTC | 0.992 ± 0.013
119 | AAGCACGGTT | 1.08 ± 0.093
120 | AAGCACGTTG | 1.05 ± 0.027
121 | AAGCAGACGG | 1.05 ± 0.036
122 | AAGCAGGGCT | 0.999 ± 0.019
123 | AAGCAGGGTG | 1 ± 0.04
124 | AAGCAGTCA | 1.01 ± 0.038
125 | AAGCAGTTAC | 3.41 ± 0.3

Row | Sequence | switch fluorescence ratio
126 | AAGCATCTTT | 0.974 ± 0.013
127 | AAGCATTTAC | 3.118 ± 0.021
128 | AAGCCAGATG | 1.076 ± 0.0092
129 | AAGCGAGGGG | 1.03 ± 0.047
130 | AAGCGAGTTC | 0.9981 ± 0.0089
131 | AAGCGCTTTT | 0.979 ± 0.058
132 | AAGCGGGACG | 0.999 ± 0.054
133 | AAGCGGGCAG | 1 ± 0.02
134 | AAGCGGGGTG | 1.06 ± 0.063
135 | AAGCGGTCGC | 0.99 ± 0.017
136 | AAGCGTGCCT | 1.01 ± 0.018
137 | AAGCTACGGC | 1.02 ± 0.019
138 | AAGCTAGGAG | 0.999 ± 0.041
139 | AAGCTCGGTA | 0.9866 ± 0.0065
140 | AAGCTGATCT | 1.016 ± 0.0071
141 | AAGCTGCCTG | 1.02 ± 0.018
142 | AAGCTGTTTC | 1.009 ± 0.0061
143 | AAGCTTTACG | 1.052 ± 0.0079
144 | AAGCTTTATG | 1.003 ± 0.0052
145 | AAGCTTTGGA | 0.983 ± 0.012
146 | AAGCTTTTAT | 0.993 ± 0.06
147 | AAGGAAAGGC | 0.961 ± 0.037
148 | AAGGAAATAG | 0.969 ± 0.0021
149 | AAGGAAGAGG | 0.984 ± 0.064
150 | AAGGAATTAA | 1.07 ± 0.12

Row | Sequence | switch fluorescence ratio
151 | AAGGAATTGT | 0.9729 ± 0.0085
152 | AAGGAATTTT | 1.05 ± 0.1
153 | AAGGACAAGG | 0.999 ± 0.043
154 | AAGGACCTCC | 1.232 ± 0.0034
155 | AAGGACGCTG | 0.991 ± 0.069
156 | AAGGACGTGG | 0.98 ± 0.029
157 | AAGGACTAAC | 1.12 ± 0.012
158 | AAGGACTATT | 1.03 ± 0.011
159 | AAGGAGCTGA | 0.9915 ± 0.0037
160 | AAGGAGTTTT | 0.973 ± 0.034
161 | AAGGATTAGA | 0.987 ± 0.02
162 | AAGGATTGGG | 1.02 ± 0.0049
163 | AAGGCAACGC | 0.98 ± 0.056
164 | AAGGCAATTT | 1.02 ± 0.048
165 | AAGGCACCTG | 1.03 ± 0.042
166 | AAGGCATGCA | 1.01 ± 0.032
167 | AAGGCATGCG | 1.037 ± 0.005
168 | AAGGCATTAT | 1.005 ± 0.0081
169 | AAGGCCGGGT | 1.05 ± 0.054
170 | AAGGCGGGGA | 1.017 ± 0.0051
171 | AAGGCGGGGC | 0.981 ± 0.051
172 | AAGGCTGCAG | 0.92 ± 0.05
173 | AAGGCTTAGC | 1.03 ± 0.039
174 | AAGGGAATAC | 2.6 ± 0.82
175 | AAGGGATCTG | 0.9763 ± 0.0069

Row | Sequence | switch fluorescence ratio
176 | AAGGGATGCG | 1.09 ± 0.097
177 | AAGGGATGGC | 1.03 ± 0.043
178 | AAGGGATTAA | 1.01 ± 0.016
179 | AAGGGATTGG | 0.981 ± 0.031
180 | AAGGGCCTGG | 0.982 ± 0.029
181 | AAGGGCGTAT | 1.01 ± 0.02
182 | AAGGGCTCAT | 0.97409 ± 0.00079
183 | AAGGGCTGTG | 0.9845 ± 0.007
184 | AAGGGGACTT | 1.02 ± 0.037
185 | AAGGGGAGGT | 1.02 ± 0.041
186 | AAGGGGAGTC | 1.01 ± 0.0044
187 | AAGGGGAGTG | 1.02 ± 0.11
188 | AAGGGGATGG | 0.968 ± 0.038
189 | AAGGGGATTA | 0.99 ± 0.033
190 | AAGGGGCATT | 1.01 ± 0.011
191 | AAGGGGCGAG | 0.9796 ± 0.0074
192 | AAGGGGCGCC | 0.999 ± 0.052
193 | AAGGGGCGGG | 0.952 ± 0.011
194 | AAGGGGGAGC | 0.988 ± 0.042
195 | AAGGGGGCAG | 0.994 ± 0.025
196 | AAGGGGGCCG | 1.06 ± 0.092
197 | AAGGGGGCGG | 1 ± 0.015
198 | AAGGGGGGAC | 1.04 ± 0.07
199 | AAGGGGGGCG | 1.02 ± 0.037
200 | AAGGGGGGGT | 0.999 ± 0.03
